Measured values: US20260217835A1 (published 2026)

Molecular target: the molecule itself
Assay: SEC peak area ratio after coexpression of full-length heavy chain, light chain and Fc fragment

| Protein | Homo full-length heavy chain (%) |
| --- | --- |
| IgG1 full-length heavy chain with K392D/D399K/K409D (SEQ ID NO: 50) with light chain SEQ ID NO: 61 (antibody) heavy: QVQLQESGPGLVRPSQTLSLTCTVSGYSITSDHAWSWVRQPPGRGLEWIGYISYSGITTYNPSLKSRVTMLRDTSKNQFSLRLSSVTAADTAVYYCARSLARTTAMDYWGQGSLVTVSSASTKGPSVFPLAPSSKSTSGGTAALGCLVKDYFPEPVTVSWNSGALTSGVHTFPAVLQSSGLYSLSSVVTVPSSSLGTQTYICNVNHKPSNTKVDKRVEPKSCDKTHTCPPCPAPELLGGPSVFLFPPKPKDTLMISRTPEVTCVVVDVSHEDPEVKFNWYVDGVEVHNAKTKPREEQYNSTYRVVSVLTVLHQDWLNGKEYKCKVSNKALPAPIEKTISKAKGQPREPQVYTLPPSREEMTKNQVSLTCLVKGFYPSDIAVEWESNGQPENNYDTTPPVLKSDGSFFLYSDLTVDKSRWQQGNVFSCSVMHEALHNHYTQKSLSLSP light: not shown | 76.8 |
| IgG1 full-length heavy chain with K392L/T394W/F405A/Y407V (SEQ ID NO: 41) with light chain SEQ ID NO: 61 (antibody, also called Sample No. 200 full-length heavy chain) heavy: QVQLQESGPGLVRPSQTLSLTCTVSGYSITSDHAWSWVRQPPGRGLEWIGYISYSGITTYNPSLKSRVTMLRDTSKNQFSLRLSSVTAADTAVYYCARSLARTTAMDYWGQGSLVTVSSASTKGPSVFPLAPSSKSTSGGTAALGCLVKDYFPEPVTVSWNSGALTSGVHTFPAVLQSSGLYSLSSVVTVPSSSLGTQTYICNVNHKPSNTKVDKRVEPKSCDKTHTCPPCPAPELLGGPSVFLFPPKPKDTLMISRTPEVTCVVVDVSHEDPEVKFNWYVDGVEVHNAKTKPREEQYNSTYRVVSVLTVLHQDWLNGKEYKCKVSNKALPAPIEKTISKAKGQPREPQVYTLPPSREEMTKNQVSLTCLVKGFYPSDIAVEWESNGQPENNYLTWPPVLDSDGSFALVSKLTVDKSRWQQGNVFSCSVMHEALHNHYTQKSLSLSP light: not shown | 72.7 |
| IgG1 full-length heavy chain with Q347R/K360E/D399V/F405T/K409W (SEQ ID NO: 31) with light chain SEQ ID NO: 61 (antibody) heavy: QVQLQESGPGLVRPSQTLSLTCTVSGYSITSDHAWSWVRQPPGRGLEWIGYISYSGITTYNPSLKSRVTMLRDTSKNQFSLRLSSVTAADTAVYYCARSLARTTAMDYWGQGSLVTVSSASTKGPSVFPLAPSSKSTSGGTAALGCLVKDYFPEPVTVSWNSGALTSGVHTFPAVLQSSGLYSLSSVVTVPSSSLGTQTYICNVNHKPSNTKVDKRVEPKSCDKTHTCPPCPAPELLGGPSVFLFPPKPKDTLMISRTPEVTCVVVDVSHEDPEVKFNWYVDGVEVHNAKTKPREEQYNSTYRVVSVLTVLHQDWLNGKEYKCKVSNKALPAPIEKTISKAKGQPREPRVYTLPPSREEMTENQVSLTCLVKGFYPSDIAVEWESNGQPENNYKTTPPVLVSDGSFTLYSWLTVDKSRWQQGNVFSCSVMHEALHNHYTQKSLSLSP light: not shown | 72.1 |
| IgG1 full-length heavy chain with T350V/L351Y/T366L/K392L/T394W/F405A/Y407V (SEQ ID NO: 60) with light chain SEQ ID NO: 61 (antibody) heavy: QVQLQESGPGLVRPSQTLSLTCTVSGYSITSDHAWSWVRQPPGRGLEWIGYISYSGITTYNPSLKSRVTMLRDTSKNQFSLRLSSVTAADTAVYYCARSLARTTAMDYWGQGSLVTVSSASTKGPSVFPLAPSSKSTSGGTAALGCLVKDYFPEPVTVSWNSGALTSGVHTFPAVLQSSGLYSLSSVVTVPSSSLGTQTYICNVNHKPSNTKVDKRVEPKSCDKTHTCPPCPAPELLGGPSVFLFPPKPKDTLMISRTPEVTCVVVDVSHEDPEVKFNWYVDGVEVHNAKTKPREEQYNSTYRVVSVLTVLHQDWLNGKEYKCKVSNKALPAPIEKTISKAKGQPREPQVYVYPPSREEMTKNQVSLLCLVKGFYPSDIAVEWESNGQPENNYLTWPPVLDSDGSFALVSKLTVDKSRWQQGNVFSCSVMHEALHNHYTQKSLSLSP light: not shown | 71.9 |
| IgG1 full-length heavy chain with Q347E/S354Y/T366Y/Y407T (SEQ ID NO: 39) with light chain SEQ ID NO: 61 (antibody) heavy: QVQLQESGPGLVRPSQTLSLTCTVSGYSITSDHAWSWVRQPPGRGLEWIGYISYSGITTYNPSLKSRVTMLRDTSKNQFSLRLSSVTAADTAVYYCARSLARTTAMDYWGQGSLVTVSSASTKGPSVFPLAPSSKSTSGGTAALGCLVKDYFPEPVTVSWNSGALTSGVHTFPAVLQSSGLYSLSSVVTVPSSSLGTQTYICNVNHKPSNTKVDKRVEPKSCDKTHTCPPCPAPELLGGPSVFLFPPKPKDTLMISRTPEVTCVVVDVSHEDPEVKFNWYVDGVEVHNAKTKPREEQYNSTYRVVSVLTVLHQDWLNGKEYKCKVSNKALPAPIEKTISKAKGQPREPEVYTLPPYREEMTKNQVSLYCLVKGFYPSDIAVEWESNGQPENNYKTTPPVLDSDGSFFLTSKLTVDKSRWQQGNVFSCSVMHEALHNHYTQKSLSLSP light: not shown | 70.4 |
